Results published in patent publication US20210252150A1.

Assays:
[1] = target: HA of A/California/04/2009 (H1N1) (influenza A virus (H1N1)) (UniProt P26140); experiment: ELISA, recombinant HA
[2] = target: HA of A/duck/Czechoslovakia/1956 (H4); experiment: ELISA, recombinant HA
[3] = target: HA of A/Netherlands/219/2003 (H7N7) (influenza A virus (H7N7))
[4] = target: HA of A/shearwater/Western Australia/2576/1979 (H15N9) (influenza A virus (H15N9))
[5] = target: HA of A/Hong Kong/1/1968 (H3N2) (influenza A virus (H3N2)) (UniProt Q91MA7)
[6] = target: HA of A/Indonesia/5/2005 (H5N1) (influenza A virus (H5N1))
[7] = target: HA of A/Singapore/1/1957 (H2) (influenza A virus (H2)) (UniProt Q67333)
[8] = target: HA of A/Hong Kong/1073/99 (H9) (influenza A virus (H9))
[9] = target: HA of A/Shanghai/2/2013 (H7N9) (influenza A virus (H7N9))
[10] = target: HA of A/mallard duck/Astrakhan/263/1982 (H14N5) (influenza A virus (H14N5))

## CR6261 (antibody)
[1]
  EC50: 0.012 µg/mL
[2]
  EC50: 0.023 µg/mL

## rFluA-20 heavy chain mutant C101A (antibody)
[3]
  EC50: 0.17 µg/mL
[4]
  EC50: 0.11 µg/mL
[5]
  EC50: 0.13 µg/mL
[6]
  EC50 fold over wild-type rFluA-20: > 100 fold
[7]
  EC50: 0.44 µg/mL
[8]
  EC50 fold over wild-type rFluA-20: > 100 fold
[9]
  EC50 fold over wild-type rFluA-20: > 100 fold
[10]
  EC50 fold over wild-type rFluA-20: > 100 fold

## rFluA-20 light chain mutant N53A (antibody)
[3]
  EC50: 0.05 µg/mL
[4]
  EC50: 0.06 µg/mL
[6]
  EC50 fold over wild-type rFluA-20: > 100 fold
[8]
  EC50: 0.17 µg/mL
[9]
  EC50: 0.87 µg/mL
[10]
  EC50 fold over wild-type rFluA-20: > 100 fold

## rFluA-20 light chain mutant Q55A (antibody)
[3]
  EC50: 0.17 µg/mL
[4]
  EC50 fold over wild-type rFluA-20: > 100 fold

## rFluA-20 light chain mutant Y49A (antibody)
[3]
  EC50 fold over wild-type rFluA-20: > 100 fold
